Substitutions are numbered along the chain they refer to.

T1: wild-type human CD200RLa extracellular domain fused to the Fc region of human IgG1 (human, UniProt Q6Q8B3 24-239)
T1 construct: also called wild-type human CD200RLa fusion protein; not shown: Fc region of human IgG1
T1 sequence: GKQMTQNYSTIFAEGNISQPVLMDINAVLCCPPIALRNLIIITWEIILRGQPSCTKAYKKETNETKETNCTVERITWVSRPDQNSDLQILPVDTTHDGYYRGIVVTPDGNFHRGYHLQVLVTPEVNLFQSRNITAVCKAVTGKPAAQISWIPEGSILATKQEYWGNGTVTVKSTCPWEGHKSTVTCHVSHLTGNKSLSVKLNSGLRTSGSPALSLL

T2: CYS mutated human CD200RLa extracellular domain fused to the Fc region of human IgG1 (human, UniProt Q6Q8B3 24-239)
T2 construct: also called CYS mutated human CD200RLa fusion protein; Human CD200RLa-Cys-mut; not shown: Fc region of human IgG1
T2 chain: T1 sequence with G102C, L157C

B1: DX182, rat anti-human inhibitory CD200R monoclonal antibody (antibody, V domains shown)
VL: EVQMTQSPSTLTASPGESVSINCKASKNIRSYLAWYQQKPGKPNKLLIYSGSTLHSGTPSRFSGSGFGTDFTLTIRNLEPEDFGLYYCQQHHEYPLTFGSGTKLEIKR
VH: EIQLQESGPGLVKPSQSLSLTCSVTGYTITSGYDWSWIRKFPGNKMEWMGYINYGGSTNYKPSLGSRISITRDTSKNQFFLQLNSVSPEDTATYYCAKYNEYKSYIYDWYFDFWGPGTMVTVSS
notes: Rat hybridoma antibody; Rat IgG2a served as its isotype control; also called rat DX182; anti-huCD200R
B2: CYS mutated human CD200RLa, full length, on Ba/F3 cells expressing human DAP12 (receptor)
chain: GKQMTQNYSTIFAEGNISQPVLMDINAVLCCPPIALRNLIIITWEIILRGQPSCTKAYKKETNETKETNCTVERITWVSRPDQNSDLQILPVDTTHDGYYRCIVVTPDGNFHRGYHLQVLVTPEVNLFQSRNITAVCKAVTGKPAAQISWIPEGSICATKQEYWGNGTVTVKSTCPWEGHKSTVTCHVSHLTGNKSLSVKLNSGLRTSGSPALSLLIILYVKLSLFVVILVTTGFVFFQRINHVRKVL
notes: also called Human CD200RLa-Cys-mut; CYS mutated form of the receptor

Test [1] has as its target T1, wild-type human CD200RLa extracellular …. Briefly: indirect ELISA on the fusion protein.
In test [2] the target is T2, CYS mutated human CD200RLa …. Briefly: indirect ELISA on the fusion protein. For orientation: ELISA stands for enzyme-linked immunosorbent assay.
Test [3] concerns the target B2. Briefly: flow cytometry on Ba/F3 transfectants. For orientation: A flow cytometer gives signals particle by particle.
In test [4] the target is T3, human DAP12 with a FLAG epitope at the N terminus, in Ba/F3 cells (human, UniProt O43914 22-113).
T3 construct: whole, on cells; also called FLAG-tagged DAP12
Briefly: surface appearance of FLAG-DAP12 on Ba/F3 transfectants, flow cytometry with anti-FLAG M2.

T3 sequence (O43914 22-113): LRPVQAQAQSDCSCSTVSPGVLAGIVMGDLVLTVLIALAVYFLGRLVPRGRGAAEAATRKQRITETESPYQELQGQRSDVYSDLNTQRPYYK

For the molecule B1, the binding result in test [1], in test [2] and in test [3] was “no binding” throughout.
As for B2, the binding result in test [4] is given as “binds”.

These data come from patent US20100178296A1 (SCHERING, published 2010).
